Patent US20120077731A1 (Ablynx, published 2012)
Residue numbers refer to the chain shown, from its start.

T1: Human soluble IL-6R (human, UniProt P08887 20-358)
T1 construct: Soluble recombinant form; biotinylated in some assays; also called hIL-6R; human IL-6R
T1 sequence (looked up): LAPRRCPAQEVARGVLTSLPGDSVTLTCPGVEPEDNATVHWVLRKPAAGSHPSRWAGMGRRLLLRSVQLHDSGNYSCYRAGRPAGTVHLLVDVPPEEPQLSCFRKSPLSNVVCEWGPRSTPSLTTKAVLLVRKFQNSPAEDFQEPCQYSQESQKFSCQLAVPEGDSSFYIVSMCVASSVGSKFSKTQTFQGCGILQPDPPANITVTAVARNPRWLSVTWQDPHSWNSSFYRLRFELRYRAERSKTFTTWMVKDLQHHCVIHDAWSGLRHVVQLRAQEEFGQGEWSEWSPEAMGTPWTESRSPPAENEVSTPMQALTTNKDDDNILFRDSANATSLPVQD

T2: Human plasma sIL-6R (human, UniProt P08887 20-355, limits assumed)
T2 construct: also called plasma-derived human IL-6R
T2 sequence (looked up): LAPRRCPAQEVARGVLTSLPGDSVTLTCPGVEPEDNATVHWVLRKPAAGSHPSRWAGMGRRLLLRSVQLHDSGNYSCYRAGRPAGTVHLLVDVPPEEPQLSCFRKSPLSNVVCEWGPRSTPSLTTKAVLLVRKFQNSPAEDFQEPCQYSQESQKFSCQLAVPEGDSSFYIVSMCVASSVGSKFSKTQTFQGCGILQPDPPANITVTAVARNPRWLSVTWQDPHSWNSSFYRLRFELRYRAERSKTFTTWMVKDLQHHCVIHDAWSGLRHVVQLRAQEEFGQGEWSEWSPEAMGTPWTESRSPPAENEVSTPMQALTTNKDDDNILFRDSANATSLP

T3: Cyno plasma sIL-6R (cynomolgus monkey, UniProt A0A2K5WN54 60-396)
T3 construct: also called cynomolgus sIL-6R
T3 sequence: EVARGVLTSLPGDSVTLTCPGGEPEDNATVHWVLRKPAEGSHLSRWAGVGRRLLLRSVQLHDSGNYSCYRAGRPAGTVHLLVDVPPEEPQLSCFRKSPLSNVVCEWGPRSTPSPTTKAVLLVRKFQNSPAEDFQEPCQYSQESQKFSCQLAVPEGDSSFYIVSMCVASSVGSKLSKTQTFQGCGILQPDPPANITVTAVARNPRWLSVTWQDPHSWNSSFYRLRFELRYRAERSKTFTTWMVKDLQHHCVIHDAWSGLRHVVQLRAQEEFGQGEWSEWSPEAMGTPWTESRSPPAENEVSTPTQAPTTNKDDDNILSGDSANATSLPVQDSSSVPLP

T4: Cyno IL-6R (cynomolgus monkey, UniProt A0A2K5WN54 60-396)
T4 construct: also called cynomolgus monkey IL-6R; recombinant cyno sIL-6R
T4 sequence: T3 sequence

T5: Human membrane IL-6R on cells (human, UniProt P08887 20-468)
T5 sequence (looked up): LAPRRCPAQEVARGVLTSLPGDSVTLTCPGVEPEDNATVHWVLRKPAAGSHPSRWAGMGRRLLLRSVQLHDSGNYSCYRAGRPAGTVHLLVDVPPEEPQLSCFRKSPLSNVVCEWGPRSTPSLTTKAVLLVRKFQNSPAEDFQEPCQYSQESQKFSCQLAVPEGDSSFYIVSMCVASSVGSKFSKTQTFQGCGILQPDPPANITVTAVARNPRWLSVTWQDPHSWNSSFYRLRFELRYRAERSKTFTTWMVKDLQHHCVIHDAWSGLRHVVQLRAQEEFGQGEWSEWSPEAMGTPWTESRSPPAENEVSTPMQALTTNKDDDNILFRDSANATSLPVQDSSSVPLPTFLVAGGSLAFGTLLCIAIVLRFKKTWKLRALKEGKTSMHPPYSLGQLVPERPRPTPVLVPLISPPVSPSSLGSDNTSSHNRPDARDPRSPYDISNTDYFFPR

B1: IL6R81 (VHH)
VHH: EVQLVESGGGLVQPGGSLRLSCAASGFTFDDYGMSWVRQAPGRATEWVSAISWNGNNTYYTESMKGRFTISRDNAKNTVYLQMNSLRPEDTAVYYCVKGSTAIVGVPPTYPDEYDYWGQGTLVTVSS
B2: IL6R82 (VHH)
VHH: B1 VHH with R43K, A44G, T45L
B3: IL6R83 (VHH)
VHH: B1 VHH with V79L
B4: IL6R84 (VHH)
VHH: B1 VHH with R43K, A44G, T45L, V79L
B5: IL6R71 (VHH)
VHH: EVQLVESGGGLVQPGGSLRLSCAASGFTFDDYDIGWFRQAPGKGREGVSGISSSDGNTYYADSVKGRFTISSDNAKNTVYLQMNSLRPEDTAVYYCAAEPPDSSWYLDGSPEFFKYWGQGTLVTVSS
B6: IL6R73 (VHH)
VHH: B5 VHH with S72R
B7: IL6R74 (VHH)
VHH: B5 VHH with V79L
B8: IL6R72 (VHH)
VHH: B5 VHH with D30S
B9: PMP7C4 (VHH)
VHH: EVQLVESGGGLVQPGGSLRLSCAASGTTFRINVMAWYRQAPGKGRELVAGIITNGSTSYADSVKGRFTISRDNAKNTLYLQMNSLRPEDTAVYYCAFVTTNSDYDLGRDYWGQGTLVTVSS
notes: not shown: c-myc and (His)6 tags
B10: PMP7G7 (VHH)
VHH: B9 VHH with R30K, V33I, I51V, N54G, S56N, S58T
notes: expressed with c-myc and (His)6 tags
B11: PMP7F4 (VHH)
VHH: B9 VHH with R30K, I31V, T53N, N54G, S58T
B12: PMP7D6 (VHH)
VHH: B9 VHH with T27S, T28I, I31V, G50A, I51V, T53N, N54G, S56T, S58T
notes: as for B9
B13: PMP7G8 (VHH)
VHH: B9 VHH with T27S, I51V, T53N, N54D, S58T
notes: as for B10
B14: IL6R201 (VHH)
VHH: B5 VHH with D30S, S72R, V79L
notes: also called tagless version of IL6R75; 16R201/75
B15: IL6R88 (VHH)
VHH: B1 VHH with R43K, A44G, V79L
notes: tested as periplasmic extract and purified
B16: IL6R75 (VHH)
VHH: B5 VHH with D30S, S72R, V79L
notes: also called ILR7.5; not shown: tag (IL6R201 is called the tagless version of IL6R75)

Target: T1, Human soluble IL-6R
Test: Biacore, binding to IL-6R

Binder | Kd [nM] | koff [s⁻¹] | kon [M⁻¹ s⁻¹]
B1 | 0.4 | 0.000128 | 320000
B2 | 5.1 | 0.00314 | 619000
B3 | 0.3 | 0.00012 | 350000
B4 | 5.4 | 0.00409 | 762000
B5 | 0.2 | 0.000153 | 703000
B6 | 0.3 | 0.000233 | 698000
B7 | 0.2 | 0.000122 | 767000
B8 | 0.3 | 0.00018 | 543000

Target: T2, Human plasma sIL-6R
Test: plasma potency assay, human plasma, 42 nM IL6; sIL-6R captured on BN-12, bound IL-6 detected; blocked ligand IL-6

Binder | IC50 [nM]
B9 | 0.9
B10 | 1.5
B11 | 1.2
B12 | 0.8
B13 | 3.5

Target: T2, Human plasma sIL-6R
Test: plasma potency assay, human plasma, 2.4 nM IL6; blocked ligand IL-6
Experimental: (§1) All 5 affinity matured Nanobodies and the sequence optimized Nanobody were also tested in a plasma potency assay. […] TMB was used as substrate.

Binder | IC50 [nM]
B12 | 0.25

Target: T2, Human plasma sIL-6R
Test: plasma potency assay, human plasma ([IL6R]: ~0.4 nM, [IL6]: 2.4 nM printed); sIL-6R captured on BN-12, bound IL-6 detected; blocked ligand IL-6

Binder | IC50 [nM]
B9 | 0.21
B10 | 0.22
B11 | 0.24
B12 | 0.19
B13 | 0.34

Target: T3, Cyno plasma sIL-6R
Test: plasma potency assay, cyno plasma ([IL6R]: ~0.4 nM, [IL6]: 2.4 nM printed); sIL-6R captured on BN-12, bound IL-6 detected; blocked ligand IL-6

Binder | IC50 [nM]
B9 | 0.08
B10 | 0.11
B11 | 0.09
B12 | 0.09
B13 | 0.14

Target: T4, Cyno IL-6R
Test: SPR Biacore 3000, cyno IL-6R amine-coupled to CM5
Experimental: Remaining reactive groups were inactivated. […] Each sample was injected for 4 min at a flow rate of 45 μl/min to allow for binding to chip-bound antigen. Next, binding buffer without Nanobody was sent over the chip at the same flow rate to allow for dissociation of bound Nanobody.

Binder | Kd [nM] | koff [s⁻¹] | kon [M⁻¹ s⁻¹]
B14 | 28.1 | 0.00611 | 218000

Target: T1, Human soluble IL-6R
Test: Alphascreen IL-6/IL-6R competition (IL-6R 0.3 nM, bio-IL-6 3 nM); row EC50 of the fit table, axis [competitor], M; blocked ligand IL-6

Binder | IC50 [nM]
B1 | 0.0747
B2 | 0.476
B3 | 0.0779
B4 | 0.465

Target: T1, Human soluble IL-6R
Test: SPR (Biacore), binding curves at several concentrations of purified Nanobody on IL-6R

Binder | Kd [nM]
B9 | 0.34
B10 | 0.56
B11 | 0.48
B12 | 0.42
B13 | 0.95

Target: T1, Human soluble IL-6R
Test: Alphascreen IL-6/IL-6R competition with purified Nanobody; row EC50 of the table, axis [inhibitor], M; blocked ligand IL-6

Binder | IC50 [nM]
B15 | 0.0727
B16 | 0.0432

Target: T2, Human plasma sIL-6R
Test: plasma potency ELISA, human plasma + human IL-6 50 ng/mL; sIL-6R captured on BN-12, bound IL-6 detected; blocked ligand IL-6

Binder | IC50 (read off the curve) [nM]
B14 | ~0.04

Target: T1, Human soluble IL-6R
Test: Alphascreen IL-6/IL-6R competition (IL-6R 0.3 nM, bio-IL-6 3 nM); row EC50 of the fit table, axis [competitor], M; blocked ligand IL-6
Remark: another data set of the same source

Binder | IC50 [nM]
B5 | 0.153
B6 | 0.0916
B7 | 0.133
B8 | 0.161

Target: T3, Cyno plasma sIL-6R
Test: plasma potency assay, cyno plasma, 2.4 nM IL6; blocked ligand IL-6
Experimental: as §1

Binder | IC50 [nM]
B12 | 0.13

Target: T1, Human soluble IL-6R
Test: Biacore off-rate, periplasmic extracts

Binder | koff [s⁻¹]
B15 | 0.00026

Target: T2, Human plasma sIL-6R
Test: plasma potency assay, human plasma, 42 nM IL6; blocked ligand IL-6
Experimental: as §1

Binder | IC50 [nM]
B12 | 0.95

Target: T5, Human membrane IL-6R on cells
Test: cell-based or functional assay

Binder | IC50 values (nM), XG-1 assay [nM]
B15 | 3.3
B16 | 0.04

Target: T1, Human soluble IL-6R
Test: SPR Biacore 3000, human IL-6R amine-coupled to CM5
Experimental: Remaining reactive groups were inactivated. Nanobody binding was assessed at various concentrations ranging from 0.5 to 50 nM. Each sample was injected for 4 min at a flow rate of 45 μl/min to allow for binding to chip-bound antigen. Next, binding buffer without Nanobody was sent over the chip at the same flow rate to allow for dissociation of bound Nanobody.

Binder | Kd [nM] | koff [s⁻¹] | kon [M⁻¹ s⁻¹]
B15 | 0.9 | 0.000213 | 230000
B16 | 0.1 | 0.0001 | 1e+06

Target: T3, Cyno plasma sIL-6R
Test: plasma potency ELISA, cyno plasma + human IL-6 50 ng/mL; sIL-6R captured on BN-12, bound IL-6 detected; blocked ligand IL-6

Binder | IC50 (read off the curve) [nM]
B14 | ~0.6
